The target in this data set is thrombin (alpha-thrombin) (UniProt P00734+P00734). The experiment in a line: competition (FAM fluorescence displacement). The note with it: G8 replaced by 5-nitroindole (N at position 8); Fluorescence assays: 10 mM sodium cacodylate pH 7.2, 100 mM KCl, 20 °C, 20 nM FAM-aptamer (100 nM thrombin in displacement); EMSA: 1xTBE pH 8.3, 100 mM KCl ….

Values joined by “and” are separate entries in the source; they are usually repeats but may differ in a detail not shown here. Equal values may be shown once.

As for GGTTGGTNTGGTTGG [TBA-N8], the Kd (in general, the free concentration of one partner at which half of the binding sites on the other are occupied at equilibrium, for simple one-to-one binding) is 2.3 nM and 1.7 nM.

Values taken from article PMC4648099.
